Experimental data published in patent US20090238754A1, “USE OF PYRENE TO CARRY PEPTIDES ACROSS THE BLOOD BRAIN BARRIER” (Adlyfe, Inc., priority 2008, published 2009).
pyrene = pyrene label

What was measured:
Type in all cases: in vivo
[1] = target: T1, Aβ plaques (Homo sapiens, UniProt P05067); experiment: Intranasal administration of peptide agent conjugate to hAPP751SL transgenic mice and littermate controls, brain fluorescence imaging (Example 1)
T1 construct: from tissue; host or cells: brain of living hAPP transgenic mice (in vivo dosing, brain sections imaged)
T1 sequence (P05067 672-713 limits assumed): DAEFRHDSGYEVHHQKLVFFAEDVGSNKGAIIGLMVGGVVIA
From the text: The following illustrates the ability of peptide agent conjugates to target Aβ plaques (e.g., insoluble self-aggregates of Aβ protein associated with Alheimer's disease) in vivo. A peptide agent specific for Aβ corresponding to residues 16-35 of the Aβ protein (SEQ ID NO:3) with an added C-terminal lysine residue (e.g., SEQ ID NO:5) for conjugating pyrene, and labeled at each terminus with pyrene is used.
In vivo studies use four homozygous hAPP751SL transgenic 10 month old mice and four littermate controls (siblings not carrying the transgene). The labeled peptide agent conjugate is administered intranasally, at 10 μl liquid per administration (at concentrations of from 0.1 to 2.0 mg/ml) with an administration interval of a planned half of an hour, adjusted according to the condition of the animal after treatment.
At the end of the treatment, mice are sacrificed and CSF and brains are extracted. (All mice are sedated by standard inhalation anaesthesia, Isofluran, Baxter).
Cerebrospinal fluid is obtained by blunt dissection and exposure of the foramen magnum. Upon exposure, a Pasteur pipette is inserted to the approximate depth of 0.3-1 mm into the foramen magnum. CSF is collected by suctioning and capillary action until flow fully ceases. CSF is immediately frozen and kept at −80° C. until use.
After CSF sampling, the stomach, stomach content and the brains are rapidly removed. Brains are hemisected, and the right hemisphere of all mice are immersion fixed in freshly produced 4% Paraformaldehyde/PBS (pH 7.4) for one hour at room temperature, and transferred to a 15% sucrose/PBS solution for 24 hours to ensure cryoprotection. Thereafter, brains are frozen in liquid isopentane on the next day and stored at −80° C. until used for histological investigations. The other brain half is immediately shock frozen in liquid isopentane for future use.
To assess the specifity of staining by the peptide agent conjugate, fluorescence is excited using a UV-2A and B-1E filter of a microscope to detect probable auto-fluorescence in the lower spectrum. […]

[2] = target: T1, Aβ plaques; experiment: Fluorescent labeling of Aβ plaques in brain after intranasal administration to hAPP transgenic mice (Example 2); settings: for fluorescent labeling of Aβ plaques (FIG. 1): three 10 μl injections at 20 minute intervals, sacrificed 6 hours later, hAPP transgenic mice
Description: Three groups of three hAPP transgenic mice were treated with vehicle (10% DMSO), the Aβ peptide-agent conjugate described above, or pyrene butyrate. Mice received three 10 μl injections at 20 minute intervals over a one hour period. Mice were sacrificed 6 hours later and tissues were collected. Flourescence in sagital sections was performed using fixed frozen tissue and a UV-2A fileter-equipped microscope. All plaque counts were performed on a digital images using Image-Pro-Plus software (Media Cybernetics, Inc., Bethesda, Md.).

[3] = target: T1, Aβ plaques; experiment: Fluorescent labeling of Aβ plaques in brain after intravenous administration to hAPP transgenic mice (Example 3); settings: intravenous 30 mg/kg, tail vein, 6 hours after administration
Description: hAPP transgenic mice were administered the Aβ peptide-agent conjugate described above intravenously at a dose of 30 mg/kg through the tail vein. Mice were sacrificed at 6 hours after the administration of the conjugate, and brain sections were prepared for imaging as described above. After a section was imaged for conjugate fluorescence, it was bleached of fluorescence and stained with a Thioflavin S stain.

[4] = Clearance of conjugate determined by analysis of cerebrospinal fluid; settings: 6 hours post-administration; CSF revealed no evidence of circulating conjugate
Description: The rate of localization and clearance or degradation of a conjugate can be assessed experimentally, for example, by administering the conjugates to mice and sacrificing them for analysis at different times post-administration, such as at time periods including 2 minutes, 10 minutes, 30 minutes, 60 minutes, 1 hour, 2 hours, 3 hours, 4 hours, 5 hours, 6 hours, or longer, post-administration.

Substance | binding to amyloid in the brain ([1]; hAPP751SL transgenic mice) | localization and binding in the brain ([1]; nontransgenic mice) | crossing of the blood-brain barrier (BBB) ([1]; transgenic mice treated with the highest dose, brain images vs control mice and transgenic vehicle control) | correlation between conjugate fluorescence and Thioflavin S staining ([2]; hippocampus (data not shown)) | coincidence of conjugate fluorescence with 6E10 antibody and Thioflavin S plaque staining ([2]; sequential sagital brain sections, co-merged images) | fluorescent labeling of Aβ plaques (FIG. 1) [2] | correlation between conjugate fluorescence and Thioflavin S staining ([3]; cortex (FIG. 3A)) | correlation between conjugate fluorescence and Thioflavin S staining ([3]; hippocampus (FIG. 3B)) | clearance, as determined by analysis of cerebrospinal fluid [4]
AD185: Peptide of residues 16-35 of the Aβ protein with added C-terminal lysine (SEQ ID NO:5), labeled at each terminus with pyrene (pyrene-KLVFFAEDVGSNKGAIIGLMK-pyrene) | binds to the amyloid and agglomerates outside the blood vessel in the brain | reaches the olfactory bulb, but does not bind to a specifiable morphological structure | crosses the blood-brain barrier | positive correlation | coincided with the antibody and Thioflavin S plaque staining | showed fluorescent labeling of Aβ plaques | significant correlation | significant correlation | cleared
pyrene butyrate [reference compound] |  |  |  |  |  | did not |  |  | 
